Data as given in patent US6878521B1, “Fibril-blocking peptide, a method for preventing fibril formation” (The University of Chicago, priority 1999, dated 2005).
“Also recorded” adds a separate entry of the source. Where a SMILES comes first, the peptide text is derived from it. [ ]: non-standard residue; d: D form. Nle = CCCC[C@H](N)C(=O)O

Assays:
[1] = test system: SMA LC expressed in COS cells; experiment: aggresome formation in SMA-transfected COS cells, immunofluorescence; format: cell-based; conditions: for proportion of COS cells containing aggresomes: SMA-transfected, immunofluorescence, Hsp70 co-expressed, with or without ALLN; for cells exhibiting aggresomes: anti-kappa stained cells, peptides added with ALLN
Experimental: COS-1 cells were transiently transfected with FuGENE 6 transfection reagent (Roche Molecular Biochemicals, Indianapolis, Ind.) according to manufacturer's instructions and analyzed two days later. Overnight incubations with various concentrations of ALLN (SEQ. ID. NO. 11) (Sigma Chemical Co., St. Louis, Mo.), 10 μM lactacystin (Calbiochem, La Jolla, Calif.), 10 μg/ml nocodazole (Sigma), or various concentrations of peptides were begun the day following transfection.
A peptide was synthesized that fused an HIV TAT sequence (YGRKKRRQRRR) (SEQ. ID. NO. 8) with the VL derived sequence which the inventors have shown inhibit fiber formation in vitro, discussed supra. To ensure adequate flexibility and solubility, additional VL sequence was added on both sides of the active 7-mer, generating the following sequence for the TAT-TISS peptide: NH2-[…]-OH. (SEQ. ID. NO. 9) A control peptide was synthesized (TAT-PASS) in which the critical hydrophobic residues were substituted with alanines and the extended structure of the peptide destroyed by the addition of a proline (NH2-[…]-OH). (SEQ. ID. NO. 10) cells were treated with either peptide 24 h after transfection and incubated overnight in the presence of the indicated concentrations of ALLN. (SEQ. ID. NO. […]) Cells were then harvested for western blotting or immunofluorescence as described above.
Without ALLN (SEQ. ID. NO. 11) treatment 30% of the COS cells contained aggresomes as assayed by immunofluorescence.
Lastly, the inventors determined that the decrease in steady state level of SMA in the presence of TAT-TISS (SEQ. ID. NO. 9) peptide correlated with a decrease in the frequency of aggresome formation, by scoring anti-kappa stained cells.

[2] = target: transthyretin (Homo sapiens, UniProt P02766); conditions: Peterson et al. 1998; cited from earlier work
[3] = target: SMA, recombinant kappa-IV light chain variable domain (VL) (human); experiment: cell-based or functional assay
[4] = target: T1, SMA (kappa-IV recombinant VL) (Homo sapiens, UniProt P06312, K56R/P66L/Q115H/T120H); experiment: agitation-based in vitro SMA fibril formation assay (fluorescence); format: biochemical; conditions: for inhibition of SMA fibril formation: in vitro, result in words
T1 construct: two kappa-IV recombinant VL, LEN and SMA; made in house
Experimental: Further, the inventors used an agitation-based in vitro assay to assemble fibrils from two kappa-IV recombinant VL, LEN and SMA.
Fibril formation was measured over time at each peptide concentration. The extent of SMA fibril formation at 45 hours in the presence of various concentration so fthe peptides is plotted relative to that of SMA alone at 45 hours.
In the BiP reactions, SMA fibril formation was assayed in the range of 1 to 1000 moles SMA per mole of fibril antagonist.

[5] = test system: λ6 VL protein; experiment: in vitro fibril assembly of λ6 VL protein; format: biochemical
[6] = test system: SMA LC expressed in COS-1 cells; experiment: biochemical assay of soluble and insoluble SMA in transfected COS-1 cells (western blot); format: cell-based; conditions: for intracellular aggregation of SMA: in cells, result in words; for amount of SMA recovered: 50 μM peptide, overnight, 1-10 μg/ml ALLN
[7] = test system: SMA; experiment: co-immunoprecipitation with SMA using anti-kappa antibody; format: binding, human; conditions: co-transfected, metabolically labeled cells, soluble fractions
Experimental: Culture, metabolic labeling, lysis and immunoprecipitation of COS-1 cells were performed as described in Dul et al. Immunol. […] The following antibodies were used in immunoprecipitations: rabbit anti-human kappa antibody (Bethyl Labs, Montgomery, Tex.); goat anti-human kappa (Caltag, Burlingame, Calif.); mouse anti-ubiquitin (StressGen, Victoria, BC, Canada).
Endogenous Hsp70 was also associated with SMA, but was not dramatically enriched.

Sequence of BiP (binding protein), endoplasmic reticulum chaperone, recombinant wild type (P07823 19-654): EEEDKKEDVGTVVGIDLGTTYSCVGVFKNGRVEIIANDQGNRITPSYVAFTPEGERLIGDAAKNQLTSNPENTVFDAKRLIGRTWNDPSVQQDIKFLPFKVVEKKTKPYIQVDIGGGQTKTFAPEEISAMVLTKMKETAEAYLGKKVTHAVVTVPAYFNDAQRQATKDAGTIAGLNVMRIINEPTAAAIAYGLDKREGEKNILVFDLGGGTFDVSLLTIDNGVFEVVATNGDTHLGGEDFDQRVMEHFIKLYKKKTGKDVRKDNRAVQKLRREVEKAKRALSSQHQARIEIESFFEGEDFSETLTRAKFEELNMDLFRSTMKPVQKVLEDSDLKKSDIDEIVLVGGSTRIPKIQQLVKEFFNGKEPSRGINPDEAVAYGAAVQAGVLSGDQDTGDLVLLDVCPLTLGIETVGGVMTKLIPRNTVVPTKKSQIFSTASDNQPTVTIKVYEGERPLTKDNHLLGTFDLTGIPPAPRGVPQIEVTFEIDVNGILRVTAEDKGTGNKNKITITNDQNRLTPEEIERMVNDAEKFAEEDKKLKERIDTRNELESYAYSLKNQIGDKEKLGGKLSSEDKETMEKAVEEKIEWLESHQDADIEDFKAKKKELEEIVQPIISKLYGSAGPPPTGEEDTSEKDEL

## CCCC[C@@H](C=O)NC(=O)[C@H](CC(C)C)NC(=O)[C@H](CC(C)C)NC(C)=O [ALLN, reference compound] (Ac-Leu-Leu-[Nle]-aldehyde)
[1]
  proportion of COS cells containing aggresomes: 75%
  cells exhibiting aggresomes: about 65%

## O=C(O)c1ccccc1Nc1cccc(C(F)(F)F)c1 [flufenamic acid]
[2]
  inhibition of conformational changes of transthyretin: inhibits the conformational changes

## BiP (binding protein), endoplasmic reticulum chaperone, recombinant wild type
[3]
  SMA fibril formation (fluorescence units) at 30 SMA:1 BiP: < 10 percent
  SMA fibril formation (fluorescence) at 100:1 stoichiometric ratio: 75 percent
  SMA fibril formation (fluorescence) at 300:1 stoichiometric ratio: 100 percent
  inhibition of SMA ordered aggregation at 75 hours, 1 mole BiP per 100 moles SMA: 50%

## FTLKISR
[4]
  inhibition of SMA fibril formation: inhibited as well as FTLTISS
[5]
  inhibition of fibril assembly of λ6 VL protein: inhibited fibril assembly

## FTLTISS [Phe71-Thr72-Leu73-Thr74-Ile75-Ser76-Ser77, peptide of positions 71 through 77 of human kappa-4 light chain variable domain]
[4]
  inhibition of SMA fibril formation: fibril blocking; also recorded: markedly inhibited the aggregation
[6]
  intracellular aggregation of SMA: effective in reducing intracellular aggregation

## FYQLALT [reference compound]
[4]; BiP incubated with peptide before aggregation reaction
  effect of prebinding BiP with peptide on BiP's suppression of fibril assembly: blocked the chaperone's ability to suppress fibril assembly

## H-YGRKKRRQRRRSGSGTDATAPASSLQAED-OH [TAT-PASS, reference compound]
[4]
  inhibition of SMA fibril formation: does not inhibit fibril formation in vitro
[1]
  cells exhibiting aggresomes: no significant effect
[6]; 10 μg/ml ALLN, highest peptide concentration used
  effect on yield of SMA: only a marginal effect
[6]
  amount of SMA recovered: no effect

## H-YGRKKRRQRRRSGSGTDFTLTISSLQAED-OH [TAT-TISS]
[1]
  cells exhibiting aggresomes: 25%
[6]
  ubiquitinated forms of SMA: diminished
  amount of SMA recovered: dramatically reduced

## Hsp70: heat shock protein 70, a family member of BiP; cytosolic chaperone
[4]
  inhibition of SMA fibril formation: blocked fibril formation
[4]; listed as heat shock protein (hsp)70
  inhibition of SMA fibril formation: did inhibit fibril formation
[1]
  proportion of COS cells containing aggresomes: 12%
[1]; co-expression with SMA, result in words
  frequency of aggresome formation: decreases the frequency of aggresome formation
[6]
  ubiquitinated forms of SMA: decrease in the pool of ubiquitinated SMA
  intracellular aggregation of SMA: decreases its aggregation
[7]
  association with SMA by co-immunoprecipitation: specifically co-immunoprecipitated with SMA

## Lysozyme [reference compound]
[4]
  inhibition of SMA fibril formation: no appreciable fibril blocking ability
[4]; listed as lysozome
  inhibition of SMA fibril formation: did not significantly decrease fibril formation

## PKLLIYWA
[4]
  inhibition of SMA fibril formation: partial inhibition

## TDFTLTI
[4]
  inhibition of SMA fibril formation: markedly inhibited the aggregation

## TRIFSKL [reference compound]
[4]
  inhibition of SMA fibril formation: ineffective fibril blocker

## albumin [reference compound]
[4]
  inhibition of SMA fibril formation: did not significantly decrease fibril formation

## ferritin [reference compound]
[4]
  inhibition of SMA fibril formation: did not significantly decrease fibril formation
